Test results: FireProtDB (doi:10.1016/j.jmb.2009.05.011)
Several values for one entry are separate records, joined by “and”; a condition that tells them apart may be missing. Equal values may be shown once.

B1: Dihydrolipoyllysine-residue succinyltransferase component of 2-oxoglutarate dehydrogenase complex, P0AFG6 (parent)
chain: MSSVDILVPDLPESVADATVATWHKKPGDAVVRDEVLVEIETDKVVLEVPASADGILDAVLEDEGTTVTSRQILGRLREGNSAGKETSAKSEEKASTPAQRQQASLEEQNNDALSPAIRRLLAEHNLDASAIKGTGVGGRLTREDVEKHLAKAPAKESAPAAAAPAAQPALAARSEKRVPMTRLRKRVAERLLEAKNSTAMLTTFNEVNMKPIMDLRKQYGEAFEKRHGIRLGFMSFYVKAVVEALKRYPEVNASIDGDDVVYHNYFDVSMAVSTPRGLVTPVLRDVDTLGMADIEKKIKELAVKGRDGKLTVEDLTGGNFTITNGGVFGSLMSTPIINPPQSAILGMHAIKDRPMAVNGQVEILPMMYLALSYDHRLIDGRESVGFLVTIKELLEDPTRLLLDV

Variants of: B1
Settings: Escherichia coli (strain K12), pH 7, structure 1W4H, whole UniProt chain shown
[1] = 10 °C, GdnHCl, CD, 3-[morpholino]propanesulfonic acid 50 mM, NaCl 200 mM
[2] = 10 °C, GdnHCl, Fluorescence, 3-[morpholino]propanesulfonic acid 50 mM, NaCl 200 mM
[3] = Thermal, CD, Potassium phosphate 50 mM, KCl 200 mM

Variant	ddG of mutation (higher = less stable) [1] [kcal/mol]	denaturant m value [1] [kcal/mol/M]	denaturant midpoint (higher = more stable) [1] [M]	unfolding free energy [1] [kcal/mol]	denaturant m value [2]	unfolding free energy [2] [kcal/mol]	Tm [3] [°C]	ddG of mutation (higher = less stable) [3] [kcal/mol]	unfolding enthalpy (van 't Hoff) [3] [kcal/mol]
MSSVDILVPDLPESVADATVATWHKKPGDAVVRDEVLVEIETDKVVLEVPASADGILDAVLEDEGTTVTSRQILGRLREGNSAGKETSAKSEEKASTPAQRQQASLEEQNNDALSPAIRRLLAEHNADASAIKGTGVGGRLTREDVEKHLAKAPAKESAPAAAAPAAQPALAARSEKRVPMTRLRKRVAERLLEAKNSTAMLTTFNEVNMKPIMDLRKQYGEAFEKRHGIRLGFMSFYVKAVVEALKRYPEVNASIDGDDVVYHNYFDVSMAVSTPRGLVTPVLRDVDTLGMADIEKKIKELAVKGRDGKLTVEDLTGGNFTITNGGVFGSLMSTPIINPPQSAILGMHAIKDRPMAVNGQVEILPMMYLALSYDHRLIDGRESVGFLVTIKELLEDPTRLLLDV [L127A]	1.37	0.63	1.95	1.23	0.41 kcal/mol/M and 0.18 kcal/mol/M	1.2	29.2	1.9	12
MSSVDILVPDLPESVADATVATWHKKPGDAVVRDEVLVEIETDKVVLEVPASADGILDAVLEDEGTTVTSRQILGRLREGNSAGKETSAKSEEKASTPAQRQQASLEEQNNDALSPAIRRLLAEHNLDGSAIKGTGVGGRLTREDVEKHLAKAPAKESAPAAAAPAAQPALAARSEKRVPMTRLRKRVAERLLEAKNSTAMLTTFNEVNMKPIMDLRKQYGEAFEKRHGIRLGFMSFYVKAVVEALKRYPEVNASIDGDDVVYHNYFDVSMAVSTPRGLVTPVLRDVDTLGMADIEKKIKELAVKGRDGKLTVEDLTGGNFTITNGGVFGSLMSTPIINPPQSAILGMHAIKDRPMAVNGQVEILPMMYLALSYDHRLIDGRESVGFLVTIKELLEDPTRLLLDV [A129G]	0.56	0.72	3.07	2.21	0.5 kcal/mol/M and 0.2 kcal/mol/M	2.22	46.5	0.58	22
MSSVDILVPDLPESVADATVATWHKKPGDAVVRDEVLVEIETDKVVLEVPASADGILDAVLEDEGTTVTSRQILGRLREGNSAGKETSAKSEEKASTPAQRQQASLEEQNNDALSPAIRRLLAEHNLDASGIKGTGVGGRLTREDVEKHLAKAPAKESAPAAAAPAAQPALAARSEKRVPMTRLRKRVAERLLEAKNSTAMLTTFNEVNMKPIMDLRKQYGEAFEKRHGIRLGFMSFYVKAVVEALKRYPEVNASIDGDDVVYHNYFDVSMAVSTPRGLVTPVLRDVDTLGMADIEKKIKELAVKGRDGKLTVEDLTGGNFTITNGGVFGSLMSTPIINPPQSAILGMHAIKDRPMAVNGQVEILPMMYLALSYDHRLIDGRESVGFLVTIKELLEDPTRLLLDV [A131G]	0.52	0.71	3.12	2.22	0.43 kcal/mol/M and 0.28 kcal/mol/M	2.44	48.5	0.43	21
